Source: the supplement of paper PMC9112550, “Optimization of the antimicrobial peptide Bac7 by deep mutational scanning” (BMC Biology, 2022)

System: Escherichia coli TOP10
Experiment: shrunken log2 fold change of peptide-encoding DNA abundance (4.5 h post-induction vs induction); higher = less antimicrobial activity (less host growth inhibition)
Conditions: time post-induction: 4.5 h; library: site-saturation at positions 5, 18, 19, 20
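Note: peptides expressed intracellularly from a pBAD plasmid library in pooled LB shake-flask culture, induced with 0.3% L-arabinose, DNA abundance read by NGS, three biological replicates, DESeq2 with apeglm shrinkage.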

In order of rising “shrunken log2 fold change” value:
1. RRIRCRPPRLPRPRPRPWYNPRP  -1.45
2. RRIRCRPPRLPRPRPRPYLPPRP  -1.2
3. RRIRCRPPRLPRPRPRPYTWPRP  -1.09
4. RRIRCRPPRLPRPRPRPYYWPRP  -0.992
5. RRIRCRPPRLPRPRPRPYDKPRP  -0.985
6. RRIRCRPPRLPRPRPRPYTTPRP  -0.97
7. RRIRCRPPRLPRPRPRPYIYPRP  -0.945
8. RRIRCRPPRLPRPRPRPYHHPRP  -0.746
9. RRIRCRPPRLPRPRPRPWWIPRP  -0.655
10. RRIRCRPPRLPRPRPRPYEAPRP  -0.511
11. RRIRDRPPRLPRPRPRPAEYPRP  -0.491
12. RRIRCRPPRLPRPRPRPYLTPRP  -0.459
13. RRIRCRPPRLPRPRPRPYDCPRP  -0.451
14. RRIRCRPPRLPRPRPRPYWGPRP  -0.427
15. RRIRCRPPRLPRPRPRPWTSPRP  -0.419
16. RRIRCRPPRLPRPRPRPYQHPRP  -0.381
17. RRIRDRPPRLPRPRPRPFREPRP  -0.376
18. RRIRDRPPRLPRPRPRPAPYPRP  -0.352
19. RRIRCRPPRLPRPRPRPYDAPRP  -0.334
20. RRIRCRPPRLPRPRPRPYGKPRP  -0.307
21. RRIRCRPPRLPRPRPRPWTLPRP  -0.282
22. RRIRCRPPRLPRPRPRPYGNPRP  -0.277
23. RRIRCRPPRLPRPRPRPYKCPRP  -0.273
24. RRIRDRPPRLPRPRPRPFHNPRP  -0.271
25. RRIRDRPPRLPRPRPRPFMMPRP  -0.265
26. RRIRDRPPRLPRPRPRPAMFPRP  -0.228
27. RRIRDRPPRLPRPRPRPFSYPRP  -0.22
28. RRIRDRPPRLPRPRPRPCDKPRP  -0.206
29. RRIRDRPPRLPRPRPRPCEEPRP  -0.187
30. RRIRDRPPRLPRPRPRPFWHPRP  -0.166
31. RRIRDRPPRLPRPRPRPCVKPRP  -0.161
32. RRIRDRPPRLPRPRPRPFSPPRP  -0.158
33. RRIRDRPPRLPRPRPRPCDTPRP  -0.157
34. RRIRDRPPRLPRPRPRPFQWPRP  -0.156
35. RRIRDRPPRLPRPRPRPFMHPRP  -0.148
36. RRIRDRPPRLPRPRPRPCCLPRP  -0.146
37. RRIRDRPPRLPRPRPRPFKKPRP  -0.145
38. RRIRCRPPRLPRPRPRPYLQPRP  -0.144
39. RRIRDRPPRLPRPRPRPFRQPRP  -0.137
40. RRIRDRPPRLPRPRPRPAKNPRP  -0.119
41. RRIRDRPPRLPRPRPRPAFIPRP  -0.115
42. RRIRDRPPRLPRPRPRPDAMPRP  -0.107
43. RRIRDRPPRLPRPRPRPEILPRP  -0.101
44. RRIRDRPPRLPRPRPRPDNAPRP  -0.0954
45. RRIRDRPPRLPRPRPRPFLTPRP  -0.0719
46. RRIRDRPPRLPRPRPRPCIYPRP  -0.0518
47. RRIRCRPPRLPRPRPRPYSVPRP  -0.0508
48. RRIRDRPPRLPRPRPRPFISPRP  -0.0503
49. RRIRDRPPRLPRPRPRPCSFPRP  -0.0466
50. RRIRDRPPRLPRPRPRPCDSPRP  -0.0465
51. RRIRDRPPRLPRPRPRPCNFPRP  -0.0419
52. RRIRDRPPRLPRPRPRPADYPRP  -0.0418
53. RRIRDRPPRLPRPRPRPDICPRP  -0.0418
54. RRIRDRPPRLPRPRPRPCKTPRP  -0.0377
55. RRIRDRPPRLPRPRPRPFTLPRP  -0.0329
56. RRIRDRPPRLPRPRPRPAHIPRP  -0.0312
57. RRIRDRPPRLPRPRPRPFTSPRP  -0.0273
58. RRIRDRPPRLPRPRPRPEHSPRP  -0.027
59. RRIRCRPPRLPRPRPRPYPGPRP  -0.0268
60. RRIRDRPPRLPRPRPRPFMCPRP  -0.0266
61. RRIRDRPPRLPRPRPRPAMYPRP  -0.0257
62. RRIRDRPPRLPRPRPRPFGFPRP  -0.0238
63. RRIRDRPPRLPRPRPRPCAPPRP  -0.0226
64. RRIRDRPPRLPRPRPRPAKGPRP  -0.0222
65. RRIRCRPPRLPRPRPRPYEKPRP  -0.0213
66. RRIRDRPPRLPRPRPRPFRLPRP  -0.0192
67. RRIRDRPPRLPRPRPRPEMFPRP  -0.0156
68. RRIRDRPPRLPRPRPRPCNRPRP  -0.0148
69. RRIRDRPPRLPRPRPRPEGKPRP  -0.0117
70. RRIRDRPPRLPRPRPRPCLQPRP  -0.0105
71. RRIRCRPPRLPRPRPRPWVDPRP  -0.00886
72. RRIRDRPPRLPRPRPRPECYPRP  -0.00335
73. RRIRDRPPRLPRPRPRPCESPRP  -0.00192
74. RRIRDRPPRLPRPRPRPCTDPRP  -0.00136
75. RRIRDRPPRLPRPRPRPDYPPRP  0.00388
76. RRIRDRPPRLPRPRPRPCRLPRP  0.00469
77. RRIRDRPPRLPRPRPRPCFMPRP  0.0118
78. RRIRDRPPRLPRPRPRPCIDPRP  0.0188
79. RRIRDRPPRLPRPRPRPCLCPRP  0.0206
80. RRIRDRPPRLPRPRPRPDMWPRP  0.0213
81. RRIRDRPPRLPRPRPRPDLFPRP  0.0296
82. RRIRDRPPRLPRPRPRPDNFPRP  0.0301
83. RRIRDRPPRLPRPRPRPEPMPRP  0.035
84. RRIRDRPPRLPRPRPRPDRLPRP  0.0401
85. RRIRDRPPRLPRPRPRPFRYPRP  0.0402
86. RRIRDRPPRLPRPRPRPFAGPRP  0.0426
87. RRIRDRPPRLPRPRPRPACHPRP  0.0454
88. RRIRDRPPRLPRPRPRPELEPRP  0.05
89. RRIRDRPPRLPRPRPRPGDYPRP  0.0583
90. RRIRDRPPRLPRPRPRPGCYPRP  0.0592
91. RRIRDRPPRLPRPRPRPGDVPRP  0.0601
92. RRIRDRPPRLPRPRPRPEPCPRP  0.064
93. RRIRDRPPRLPRPRPRPAQCPRP  0.0665
94. RRIRDRPPRLPRPRPRPDHWPRP  0.0704
95. RRIRDRPPRLPRPRPRPCGVPRP  0.0765
96. RRIRDRPPRLPRPRPRPASQPRP  0.0836
97. RRIRDRPPRLPRPRPRPDGSPRP  0.0891
98. RRIRDRPPRLPRPRPRPEKTPRP  0.0897
99. RRIRDRPPRLPRPRPRPEYSPRP  0.0929
100. RRIRDRPPRLPRPRPRPDFIPRP  0.0951
101. RRIRDRPPRLPRPRPRPGCNPRP  0.0955
102. RRIRDRPPRLPRPRPRPFLCPRP  0.0956
103. RRIRDRPPRLPRPRPRPDYIPRP  0.0998
104. RRIRDRPPRLPRPRPRPDGLPRP  0.107
105. RRIRDRPPRLPRPRPRPDCDPRP  0.122
106. RRIRDRPPRLPRPRPRPDFAPRP  0.152
107. RRIRDRPPRLPRPRPRPDWGPRP  0.161
108. RRIRDRPPRLPRPRPRPFCDPRP  0.167
109. RRIRDRPPRLPRPRPRPETIPRP  0.17
110. RRIRDRPPRLPRPRPRPFVFPRP  0.175
111. RRIRDRPPRLPRPRPRPFSWPRP  0.198
112. RRIRDRPPRLPRPRPRPDMDPRP  0.2
113. RRIRDRPPRLPRPRPRPDPQPRP  0.209
114. RRIRDRPPRLPRPRPRPEFSPRP  0.221
115. RRIRDRPPRLPRPRPRPFWPPRP  0.227
116. RRIRDRPPRLPRPRPRPGEVPRP  0.247
117. RRIRDRPPRLPRPRPRPANQPRP  0.253
118. RRIRDRPPRLPRPRPRPGEQPRP  0.259
119. RRIRDRPPRLPRPRPRPESSPRP  0.27
120. RRIRDRPPRLPRPRPRPCMRPRP  0.311
121. RRIRDRPPRLPRPRPRPERDPRP  0.312
122. RRIRDRPPRLPRPRPRPEDGPRP  0.316
123. RRIRDRPPRLPRPRPRPCVWPRP  0.321
124. RRIRDRPPRLPRPRPRPDTTPRP  0.345
125. RRIRDRPPRLPRPRPRPDDAPRP  0.365
126. RRIRDRPPRLPRPRPRPCGLPRP  0.371
127. RRIRDRPPRLPRPRPRPEKHPRP  0.377
128. RRIRDRPPRLPRPRPRPDCVPRP  0.381
129. RRIRDRPPRLPRPRPRPEWLPRP  0.382
130. RRIRDRPPRLPRPRPRPCSAPRP  0.45
131. RRIRDRPPRLPRPRPRPAEVPRP  0.46
132. RRIRDRPPRLPRPRPRPFFFPRP  0.483
133. RRIRDRPPRLPRPRPRPDWAPRP  0.534
134. RRIRDRPPRLPRPRPRPATEPRP  0.646
135. RRIRDRPPRLPRPRPRPENWPRP  0.695
136. RRIRDRPPRLPRPRPRPACAPRP  0.705
137. RRIRDRPPRLPRPRPRPDGQPRP  0.705
138. RRIRDRPPRLPRPRPRPARDPRP  0.724
139. RRIRDRPPRLPRPRPRPDCMPRP  0.781
140. RRIRDRPPRLPRPRPRPENPPRP  0.783
141. RRIRDRPPRLPRPRPRPAMTPRP  0.812
142. RRIRDRPPRLPRPRPRPEYAPRP  0.815
143. RRIRDRPPRLPRPRPRPEFHPRP  0.858
144. RRIRDRPPRLPRPRPRPEGMPRP  0.896
145. RRIRDRPPRLPRPRPRPFGWPRP  0.903
146. RRIRDRPPRLPRPRPRPEGGPRP  0.966
147. RRIRDRPPRLPRPRPRPEGQPRP  1.15
148. RRIRDRPPRLPRPRPRPEDNPRP  1.31
149. RRIRDRPPRLPRPRPRPELAPRP  1.68
150. RRIRDRPPRLPRPRPRPGAWPRP  4.01
